This note sets out measurements from patent publication US20230406921A1 (MABWELL SHANGHAI BIOSCIENCE, published 2023).

What is called EC50 (read off the curve) is the concentration needed to bring the measured effect to its halfway point. Low values mean greater potency, high ones weaker potency. The term Kd denotes the equilibrium constant for the complex coming apart. Usually koff stands for the rate constant with which the complex falls apart. The term kon denotes the rate constant with which the complex forms.

Assay [1] has as its target T1, CD47 on the surface of tumor cells (human, UniProt Q08722 19-323).
T1 construct: whole, on cells; Same protein as m4; also called CD47 antigen on the surface of U937 and CCRF cells; SKOV-3
Put plainly: FACS on CCRF cells.

Assay [2] has as its target T2, recombinant antigen of the extracellular region of CD47 (Sino Biological, Cat: 12283-H08H) (human, UniProt Q08722 19-139).
T2 construct: extracellular domain; also called recombinant CD47 extracellular region; CD47 recombinant protein
As to the kind of experiment: Fortebio Octet QKe, antibody on AHC sensor, CD47 100 nM in solution. On the technique in general: BLI is a label-free optical method that tracks binding on a fibre tip over time.
Method: The affinity of the antibody was determined by Octet QKe instrument of Fortebio Company. […] The kinetic parameters were determined.

The target of assay [3] is T1, CD47 on the surface of tumor cells. As to the kind of experiment: FACS blocking assay on CCRF cells; blocked ligand FITC-labelled rhSIRPα-Fc.
For assay [4] the target is unchanged. Put plainly: FACS blocking assay on U937 cells; blocked ligand FITC-labelled rhSIRPα-Fc.
The target in assay [5] is T3, CD47-His (human, UniProt Q08722 19-139, limits assumed).
T3 construct: not shown: His tag
Put plainly: Fortebio BLI.

Assay [6] concerns the target T2, recombinant antigen of the …. As to the kind of experiment: Fortebio BLI, recombinant CD47 extracellular region.
Assay [7] concerns the target T1, CD47 on the surface of tumor cells. As to the kind of experiment: FACS on U937 cells.
In assay [8] the target is T2, recombinant antigen of the …. Put plainly: Fortebio BLI, antibody on AHC sensor, CD47 extracellular region 100 nM; Table 6 (heavy chain mutant series).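 Note: antibody held on the sensor through anti-human Fc capture, CD47 antigen in solution, association and dissociation phases each lasting 300 s.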
Method: (§1) The affinity between the obtained mutant antibody and the CD47 recombinant protein was determined by Fortebio. The antibody was immobilized on the surface of a sensor with the anti-human Fc capture antibody (AHC Sensor), and reacted with the recombinant antigen of the extracellular region of CD47 (with a working concentration of 100 nM) in the liquid phase. The duration for binding and dissociation was both 300 seconds. The kinetic parameters were determined.
The target is the same in assay [9]. As to the kind of experiment: Fortebio BLI, antibody on AHC sensor, CD47 extracellular region 100 nM.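 Note: antibody held on the sensor through anti-human Fc capture, CD47 antigen in solution, association and dissociation phases each lasting 300 s.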
Method: as §1

B1: humanized 140 (hz140) (antibody, human IgG4 S228P, kappa, V domains shown)
VH: QVQLVQSGAEVKKPGASVKVSCKASGYKFTNYVMHWVRQAPGQRLEWMGYINPYNDGIKYNEKFTGRVTITRDTSASTAYMELSSLRSEDTAVYYCAREGDFYANYGRLGFAYWGQGTLVTVSS
VL: DIQMTQSPSSLSASVGDRVTITCRASQDITNYLNWYQQKPGKAPKLLIYYTSRLHSGVPSRFSGSGSGTDYTFTISSLQPEDIATYFCQQGDTFPRTFGGGTKVEIKR
notes: also called anti-CD47 monoclonal antibody; anti-CD47 sidearm monoclonal antibody
For B1, the “EC50 (read off the curve)” value in assay [1] is roughly 0.06 µg/mL; in assay [7], roughly 0.2 µg/mL. The Kd in [2] was 1.89 nM; in assay [5] it was 1.5 nM; in assay [6], 0.688 nM. Moreover, the koff in assay [2] amounted to 0.000933 s⁻¹; in assay [5] it was 0.00037 s⁻¹; in assay [6], 0.00022 s⁻¹. For the same molecule, the kon came out at 493000 M⁻¹ s⁻¹ in [2], 247000 M⁻¹ s⁻¹ in assay [5] and 320000 M⁻¹ s⁻¹ in [6]. Also, the “IC50 (read off the curve)” value in assay [3] and in assay [4] was roughly 0.3 µg/mL throughout.

B2: hz140-H/hz182-L (antibody, V domains shown)
VH: B1 VH
VL: DIQMTQSPSSLSASVGDRVTITCRASQDISNYLNWYQQKPGKAPKLLLYYTSRLHSGVPSRFSGSGSGTDYTLTISSLQPEDFATYFCQQGAGRPYTFGGGTKVEIK
notes: Hybrid antibody: heavy chain of hz140 with the light chain of hz182
As to B2, the Kd was 0.719 nM in assay [8] and 7.03 nM in assay [2]. Besides, the koff in assay [2] worked out at 0.00108 s⁻¹; in assay [9], 0.000226 s⁻¹. Further, the values for the kon in assay [2] and in [9] were 154000 M⁻¹ s⁻¹ and 315000 M⁻¹ s⁻¹, respectively.
